The results in this text go back to US20090170069.

The data set addresses T1, NFluc-Pum2 (pumilio domain) (UniProt Q8TB72).
T1 sequence: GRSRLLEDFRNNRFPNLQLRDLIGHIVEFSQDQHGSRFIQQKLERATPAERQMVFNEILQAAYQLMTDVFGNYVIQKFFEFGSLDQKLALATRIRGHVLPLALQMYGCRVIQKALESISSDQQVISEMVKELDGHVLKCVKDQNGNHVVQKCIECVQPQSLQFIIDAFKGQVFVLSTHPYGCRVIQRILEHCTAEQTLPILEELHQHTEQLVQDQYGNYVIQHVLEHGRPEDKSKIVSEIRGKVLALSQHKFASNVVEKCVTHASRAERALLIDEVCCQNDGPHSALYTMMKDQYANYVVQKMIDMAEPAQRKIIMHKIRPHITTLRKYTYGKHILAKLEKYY
The following applies: ternary with CFluc-Ago.

In turn, “CAUGGUGUAUAUAGUCUUUUGAUAUAGCGGC / CUAUAUACACCAUGUU [Pum target RNA + Pum1 guide]” returned an activity (fold luminescence vs controls) of 3.
